# B1: La-1-like peptide (peptide)
# chain: SGESCKAGKFTVLVGHQQNDKSTCTLYKCLNFKRKYALQISSCADVDLKSGCRQVPGAASANFPECCPMVICK
# modifications: S Maurus palmatus
# What was measured:
# Type in all cases: cell-based
# human sperm = assay: Velocity test on human spermatozoa treated with the peptide (computer-assisted motility analysis, CASA)
# From the text: (§1) Human sperm were obtained from patient consulting at the fertility department of Grenoble, following approval by the ethical committee and informed consent from the patients. All patients gave an informed consent for the conservation of the remnant sperm in the Germetheque biobank and their use in studies on human fertility in accordance with the Helsinki Declaration of 1975 on human experimentation. The Germetheque Scientific Committee approved the present study design. Ejaculate was liquefied at 37° C. for 30 min and sperm were washed twice in Sperm Preparation Medium (Origio, Målov, Denmark) at 500 g for 5 min. Concentration is then adjusted for CASA analysis. Sperm were also frozen with SpermFreeze (Fertipro NV, Beernem, Belgium) for further analysis as frozen sperm.
# (§2) After 10 minutes incubation with the peptide according to SEQ ID NO. 1 (natural, or synthesized), the sperm suspension was immediately placed onto an analysis chamber (Leja Products B.V., Netherlands) of 100 μm depth for mouse sperm and 20 μm depth for human, NHP and bovine sperm, and kept at 37° C. for microscopic quantitative study of sperm movement. Sperm motility parameters were measured at 37° C. using a sperm analyzer (Hamilton Thorn Research, Beverley). The settings employed for analysis were as follows for human, NHP, bovine and mouse respectively: acquisition rate (60;60;60;60) Hz; number of frames: (30;20;30;45); minimum contrast: (80;80;80;50); minimum cell size: (3;4;5;5); low static-size gate: (0,85;0,79;0,1;0,3); high static-size gate: (4,24;2,52;3,4;1,95); low static-intensity gate: (0,39;0,62;0,3;0,5); high static-intensity gate: (1,4;1,4;1,7;1,3); minimum elongation gate: (0;2;8;0); maximum elongation gate: (85;50;97;87); magnification factor: (1,89;1,89;1,89;0,7). The motility parameters measured were curvilinear velocity (VCL) and amplitude of lateral head displacement (ALH). A minimum of 100 motile spermatozoa was analyzed for each assay. Motile sperm were defined by VAP>(1;1;1;1) and progressive sperm were defined by VAP>(25;25;50;30) and STR>(80;80;70;70).
# [1] = tested on: mouse oocytes and capacitated sperm; assay: Fertilization study in mice (in vitro fertilization, 2-cell embryos scored)
# Protocol: Eggs were collected from mature OF1 females, synchronized with 5 units of pregnant mare serum gonadotrophin (PMSG) and 5 units of human chorionic gonadotrophin (hCG). Sperm were capacitated for 55 minutes in M16 2% BSA (37° C., 5% CO2) and introduced into droplets containing oocytes. The active peptide was introduced into droplets at the same time. Oocytes were incubated with 1.5×10^5 to 5×10^5 capacitated sperm/ml (37° C., 5% CO2) in M16 medium and unbound sperm were washed away after 4 hours incubation. Twenty-four hours after fertilization, the different stages, i.e. unfertilized oocytes (including aborted embryos and corresponding to fragmented oocytes or oocytes blocked after the extrusion of the second polar body) and 2-cell embryos (as an indication of successful fertilization) were scored.
# [2] = tested on: testicular sperm from macaca; assay: Motility activation in testicular sperm from Macaca (CASA); settings: non-human primate testicular sperm, FIGS. 3 and 4
# Protocol: FIG. 3: Measurement of motile cells and progressive cells after incubation of testicular sperm from macaca (non-human primate) with (7.8 Kda peptide) and without (Control) peptide SEQ ID NO. 1. Motile sperm and progressive sperm were characterized by VAP>1 μm/s and VAP>30 μm/s and STR>70%, respectively. STR=VSL/VAP. Statistical analyses were performed with SigmaPlot. t tests were used to compare the effects of La1-like peptide on sperm motility parameters. Data represent mean±SEM. Statistical tests with a 2-tailed P values 0.05 were considered significant. […]
# After 10 minutes incubation with the peptide according to SEQ ID NO. 1 (natural, or synthesized), the sperm suspension was immediately placed onto an analysis chamber (Leja Products B.V., Netherlands) of 100 μm depth for mouse sperm and 20 μm depth for human, NHP and bovine sperm, and kept at 37° C. for microscopic quantitative study of sperm movement. Sperm motility parameters were measured at 37° C. using a sperm analyzer (Hamilton Thorn Research, Beverley). […] The motility parameters measured were curvilinear velocity (VCL) and amplitude of lateral head displacement (ALH). A minimum of 100 motile spermatozoa was analyzed for each assay. […]
# Macaca testes were collected after euthanasia. […] 1, sperm motility was measured using the same conditions as those in Example 2.
# human ejaculated sperm = assay: Motility of fresh and frozen human ejaculated sperm incubated with the peptide (Example 5, FIG. 5)
# Protocol: FIG. 5: Measurement of % motile cells and progressive cells after incubation of fresh (left hand panel) and frozen (right hand panel) human ejaculated sperm with (7.8 kDa peptide) or without (Control) the peptide according to SEQ ID NO. 1. Motile sperm and progressive sperm were characterized by VAP>1 μm/s and VAP>30 μm/s and STR>70%, respectively. STR=VSL/VAP. Statistical analyses were performed with SigmaPlot. t tests were used to compare the effects of La1-like peptide on sperm motility parameters. Data represent mean±SEM. Statistical tests with a 2-tailed P values≤0.05 were considered significant.
# as §1, §2
# sperm [3] = assay: Toxicity on sperm (sperm vitality)
# Protocol: Forty μL of sperm were mixed with 20 μL of eosin 1% diluted in NaCl 9/1000 and 20 μL of nigrosine 10% diluted in NaCl 9/1000. Sperm were then layered onto glass slide and dried. A minimum of 100 spermatozoa was analyzed for each assay.
# sperm [4] = assay: Sperm motility tests by the applicants (comparison with papaverine, duration of effect, synthetic versus venom peptide)
# [5] = fresh human sperm samples, FIG. 5 left-hand panel
# [6] = frozen human sperm samples, FIG. 5 right-hand panel
molecule,measurement,setting,value
B1,sperm motility after incubation,"human sperm; human sperm, incubation with peptide, FIG. 2B",increase in sperm motility
same,increase in lateral amplitude (ALH),human sperm; initial lateral amplitude of less than 3.5 μm versus higher initial ALH values,greater increases
same,increase in motility (VAP),human sperm; sperm having an initial VAP of 60 μm/s,about 20%
same,increase in path velocity (VAP),human sperm; sperm having low initial path velocity (VAP),up to 80%
same,motility activation with respect to initial track speed (VCL),"human sperm; sperm with low initial track speed compared to higher initial track speeds, FIG. 2B upper left panel",higher motility activation
same,toxicity,[1],not toxic
same,increase of rate of fertilization compared to the control,[1]; number of embryos at the two cell stage,approximately 20%
same,embryo development,[1]; two cell stage,does not prevent embryo development
same,non-progressive velocity of sperm cells,[2],increase
same,progressive velocity of sperm cells,[2],increase
same,non-progressive motility,human ejaculated sperm; [5],increases
same,progressive motility,human ejaculated sperm; [5],increases
same,non-progressive motility,human ejaculated sperm; [6],increases
same,progressive motility,human ejaculated sperm; [6],increases
same,"effect on motility, frozen samples versus fresh samples",human ejaculated sperm; human sperm,greater for the frozen samples
same,toxicity on sperm,sperm [3],no toxicity
same,duration of effect on sperm motility,sperm [4],long lasting effect
same,comparison with papaverine,sperm [4]; compared to papaverine,superiority
same,biological activity of synthesized peptide versus peptide isolated from venom,sperm [4]; peptide synthesized using Native Chemical Ligation Strategy,retains the biological activity

# — patent US10729745B2, “Use of La1-like peptide isolated from maurus palmatus venom as an activator of sperm motility in mammals” (IMV Technologies, priority 2016, dated 2020)
